B1: Pistol ribozyme (parent)
chain: GGGUCGUUGUUCCAUAAUCGCGUGGAUAUGGCACGCAAGUUUCUACCGGGCACCGUAAAUGUCCGACUGGAGCCGUUCGGGCGGCUAUAAACAGACCUCAGGCCCGAAGCGUGGCGGCACCUGCCGCCGGUGGUAAAAAAGAUCGGAAGAGCACACGUCU

The results in this text go back to the RNAGym collection of RNA variant scans (doi:10.1021/acssynbio.7b00057).

Variants of B1 are the subject of this data set. As to the kind of experiment: aptazyme ON/OFF ratio, guanine; higher = stronger switching; co-transcriptional cleavage with and without guanine.
With GGGUCGGAGCGCCAUAAUCGCGUGGAUAUGGCACGCAAGUUUCUACCGGGCACCGUAAAUGUCCGACUGGAGCCGUUCGGGCGGCUAUAAACAGACCUCAGGCCCGAAGCGUGGCGGCACCUGCCGCCGGUGGUAAAAAAGAUCGGAAGAGCACACGUCU [U7G U8A U10C U11G], the “aptazyme ON/OFF ratio” value came out at 2.09.
As to GGGUCGGAGGUGGAUAAUCGCGUGGAUAUGGCACGCAAGUUUCUACCGGGCACCGUAAAUGUCCGACUGGAGCCGUUCGGGCGGCUAUAAACAGACCUCAGGCCCGAAGCGUGGCGGCACCUGCCGCCGGUGGUAAAAAAGAUCGGAAGAGCACACGUCU [U7G U8A U10G C12G C13G], the “aptazyme ON/OFF ratio” value stood at 1.18.
For GGGUCGGAGGUGUAUAAUCGCGUGGAUAUGGCACGCAAGUUUCUACCGGGCACCGUAAAUGUCCGACUGGAGCCGUUCGGGCGGCUAUAAACAGACCUCAGGCCCGAAGCGUGGCGGCACCUGCCGCCGGUGGUAAAAAAGAUCGGAAGAGCACACGUCU [U7G U8A U10G C12G C13U] the value was 1.27; for GGGUCGGAGGUGAAUAAUCGCGUGGAUAUGGCACGCAAGUUUCUACCGGGCACCGUAAAUGUCCGACUGGAGCCGUUCGGGCGGCUAUAAACAGACCUCAGGCCCGAAGCGUGGCGGCACCUGCCGCCGGUGGUAAAAAAGAUCGGAAGAGCACACGUCU [U7G U8A U10G C12G C13A], 1.25.
The same measure for GGGUCGGAGCCUUAUAAUCGCGUGGAUAUGGCACGCAAGUUUCUACCGGGCACCGUAAAUGUCCGACUGGAGCCGUUCGGGCGGCUAUAAACAGACCUCAGGCCCGAAGCGUGGCGGCACCUGCCGCCGGUGGUAAAAAAGAUCGGAAGAGCACACGUCU [U7G U8A U10C U11C C12U C13U]: 1.13.
The same measure for GGGUCGGAGCCUAAUAAUCGCGUGGAUAUGGCACGCAAGUUUCUACCGGGCACCGUAAAUGUCCGACUGGAGCCGUUCGGGCGGCUAUAAACAGACCUCAGGCCCGAAGCGUGGCGGCACCUGCCGCCGGUGGUAAAAAAGAUCGGAAGAGCACACGUCU [U7G U8A U10C U11C C12U C13A]: 1.14; for GGGUCGGAGCCUGAUAAUCGCGUGGAUAUGGCACGCAAGUUUCUACCGGGCACCGUAAAUGUCCGACUGGAGCCGUUCGGGCGGCUAUAAACAGACCUCAGGCCCGAAGCGUGGCGGCACCUGCCGCCGGUGGUAAAAAAGAUCGGAAGAGCACACGUCU [U7G U8A U10C U11C C12U C13G]: 1.25; for GGGUCGGAGCGGCAUAAUCGCGUGGAUAUGGCACGCAAGUUUCUACCGGGCACCGUAAAUGUCCGACUGGAGCCGUUCGGGCGGCUAUAAACAGACCUCAGGCCCGAAGCGUGGCGGCACCUGCCGCCGGUGGUAAAAAAGAUCGGAAGAGCACACGUCU [U7G U8A U10C U11G C12G]: 1.49.
Consider GGGUCGGAGCGUCAUAAUCGCGUGGAUAUGGCACGCAAGUUUCUACCGGGCACCGUAAAUGUCCGACUGGAGCCGUUCGGGCGGCUAUAAACAGACCUCAGGCCCGAAGCGUGGCGGCACCUGCCGCCGGUGGUAAAAAAGAUCGGAAGAGCACACGUCU [U7G U8A U10C U11G C12U], for which the “aptazyme ON/OFF ratio” value stood at 1.32.
For GGGUCGGAGCGACAUAAUCGCGUGGAUAUGGCACGCAAGUUUCUACCGGGCACCGUAAAUGUCCGACUGGAGCCGUUCGGGCGGCUAUAAACAGACCUCAGGCCCGAAGCGUGGCGGCACCUGCCGCCGGUGGUAAAAAAGAUCGGAAGAGCACACGUCU [U7G U8A U10C U11G C12A] the value was 1.27.
For GGGUCGGAGCCUCAUAAUCGCGUGGAUAUGGCACGCAAGUUUCUACCGGGCACCGUAAAUGUCCGACUGGAGCCGUUCGGGCGGCUAUAAACAGACCUCAGGCCCGAAGCGUGGCGGCACCUGCCGCCGGUGGUAAAAAAGAUCGGAAGAGCACACGUCU [U7G U8A U10C U11C C12U] the value was 1.31; for GGGUCGGAGGUCCAUAAUCGCGUGGAUAUGGCACGCAAGUUUCUACCGGGCACCGUAAAUGUCCGACUGGAGCCGUUCGGGCGGCUAUAAACAGACCUCAGGCCCGAAGCGUGGCGGCACCUGCCGCCGGUGGUAAAAAAGAUCGGAAGAGCACACGUCU [U7G U8A U10G], 1.28.
The same measure for GGGUCGGAGGUGCAUAAUCGCGUGGAUAUGGCACGCAAGUUUCUACCGGGCACCGUAAAUGUCCGACUGGAGCCGUUCGGGCGGCUAUAAACAGACCUCAGGCCCGAAGCGUGGCGGCACCUGCCGCCGGUGGUAAAAAAGAUCGGAAGAGCACACGUCU [U7G U8A U10G C12G]: 1.13; for GGGUCGGAGGUUCAUAAUCGCGUGGAUAUGGCACGCAAGUUUCUACCGGGCACCGUAAAUGUCCGACUGGAGCCGUUCGGGCGGCUAUAAACAGACCUCAGGCCCGAAGCGUGGCGGCACCUGCCGCCGGUGGUAAAAAAGAUCGGAAGAGCACACGUCU [U7G U8A U10G C12U]: 1.17.
Turning to GGGUCGGAGGUACAUAAUCGCGUGGAUAUGGCACGCAAGUUUCUACCGGGCACCGUAAAUGUCCGACUGGAGCCGUUCGGGCGGCUAUAAACAGACCUCAGGCCCGAAGCGUGGCGGCACCUGCCGCCGGUGGUAAAAAAGAUCGGAAGAGCACACGUCU [U7G U8A U10G C12A], the “aptazyme ON/OFF ratio” value was 1.03.
Consider GGGUCGGAGGUUGAUAAUCGCGUGGAUAUGGCACGCAAGUUUCUACCGGGCACCGUAAAUGUCCGACUGGAGCCGUUCGGGCGGCUAUAAACAGACCUCAGGCCCGAAGCGUGGCGGCACCUGCCGCCGGUGGUAAAAAAGAUCGGAAGAGCACACGUCU [U7G U8A U10G C12U C13G], for which the “aptazyme ON/OFF ratio” value was found to be 1.54.
With GGGUCGGAGGUUAAUAAUCGCGUGGAUAUGGCACGCAAGUUUCUACCGGGCACCGUAAAUGUCCGACUGGAGCCGUUCGGGCGGCUAUAAACAGACCUCAGGCCCGAAGCGUGGCGGCACCUGCCGCCGGUGGUAAAAAAGAUCGGAAGAGCACACGUCU [U7G U8A U10G C12U C13A], the “aptazyme ON/OFF ratio” value was found to be 1.6.
With GGGUCGGAGCCGUAUAAUCGCGUGGAUAUGGCACGCAAGUUUCUACCGGGCACCGUAAAUGUCCGACUGGAGCCGUUCGGGCGGCUAUAAACAGACCUCAGGCCCGAAGCGUGGCGGCACCUGCCGCCGGUGGUAAAAAAGAUCGGAAGAGCACACGUCU [U7G U8A U10C U11C C12G C13U], the “aptazyme ON/OFF ratio” value came to 1.3.
